Series [1] has as its target p97-C10 peptide. Kind of series: Fluorescence anisotropy, UBXD1-PUB constructs titrated to 5,6-FAM labeled p97-C10 peptide. In kind it is binding. To be noted: UBXD1-PUB (150–264) mutants titrated to 5,6-FAM labeled p97-C10 peptide (100 nM); 50 mM NaKPi, pH 6.5, 25 °C; fluorescence anisotropy ex 495/em 518 nm; fit of averaged triplicates ± standard deviation of the fit. An excerpt: N-terminal hexahistidine-tagged UBXD1-PUB (150–264) was cloned into a pET28a expression vector using the NdeI and HindIII restriction sites. UBXD1 point mutants were produced by site-directed mutagenesis following the Quikchange protocol (Agilent Technologies).
Unlabeled p97-C10 ([…]), p97-C13 ([…]), and phosphorylated p97-C13 ([…]pYG) peptides for NMR and ITC as well as 5,6-FAM-labeled peptides for fluorescence studies were purchased from Caslo ApS (Denmark).
(§1) Fluorescence anisotropy measurements (excitation: 495 nm; emission 518 nm) were carried out on a JASCO FP-8300 fluorescence spectrometer in 50 mM NaKPi, pH 6.5 at 25 °C, titrating PUB constructs to 5,6-FAM labeled p97-C10 peptide (100 nM). All titrations were performed in triplicate. Binding curves of the averaged data were fitted with GraphPad Prism 5.0 (GraphPad) using the quadratic binding equation for a one-site specific binding model:(3) r=r0+rmax⋅(F+x+KD)−(F+x+KD)^2−4⋅x⋅F/2⋅F, with r = anisotropy, r0 = anisotropy without protein, rmax = maximum anisotropy, F = fluorescent probe (labeled peptide or protein) concentration, x = titrant protein concentration, and KD = dissociation constant.
(§2) Data points are shown as means ± standard deviation based on the three experiments. KD values are given as fit of the averaged data points ± standard deviation of the fit.

Series [2] deals with full-length p97 (p97-fl). Briefly: Fluorescence anisotropy, UBXD1-PUB with full-length p97. In kind it is binding. To be noted: isolated PUB domain of UBXD1. The protocol: as §1, §2
Series [3] can be described thus: CD spectroscopy, secondary structure composition. In kind it is physicochemical. Conditions: 0.15 mg/mL protein, 50 mM NaKPi pH 6.5, 25 °C, 25 scans averaged, DichroWeb CDSSTR. How it is done: CD spectra were recorded on a Jasco J-170 CD spectrometer in a 1 mm quartz cuvette at 25 °C averaging 25 scans. Samples consisted of 0.15 mg/mL protein in 50 mM NaKPi, pH 6.5. The secondary structure composition was analyzed using DichroWeb (http://dichroweb.cryst.bbk.ac.uk) employing the CDSSTR algorithm.

We go through one molecule from paper PMC6995525, “Structure of the PUB Domain from Ubiquitin Regulatory X Domain Protein 1 (UBXD1) and Its Interaction with the p97 AAA+ ATPase” (Biomolecules, 2019).

B1: wild type (wt): N-terminal hexahistidine-tagged UBXD1-PUB (150–264), tag cleaved with thrombin (protein)
chain: STDPVAASIMKIYTFNKDQDRVKLGVDTIAKYLDNIHLHPEEEKYRKIKLQNKVFQERINCLEGTHEFFEAIGFQKVLLPAQDQEDPEEFYVLSETTLAQPQSLERHKEQLLAAE
modifications: left off: His6, N-terminal, cleaved
notes: N-terminal hexahistidine-tagged UBXD1-PUB (150–264), tag cleaved with thrombin
In turn, B1 displayed a Kd in series [1] of 13.8 ± 0.3 µM. In addition, the “affinity for full-length p97 relative to isolated PIM peptides” value in series [2] is “same range as for the isolated PIM peptides”. Further, in series [3], the α-helical content is 80%.
